Reference: patent publication US20050019758A1

Columns and labels:
Experiment in all cases: cell-based or functional assay
[1] = molecular target: F protein of RS 9320 (prototype B1) (Respiratory Syncytial Virus)
[2] = molecular target: F protein of RS Long strain virus (native form, on virus and infected VERO cells) (Respiratory Syncytial Virus) (UniProt P12568)
[3] = molecular target: F protein of RSV clinical isolate A1-V1763 (Respiratory Syncytial Virus)
[4] = molecular target: F protein of RSV clinical isolate A2-626 (Respiratory Syncytial Virus)
[5] = molecular target: F protein of RSV clinical isolate A2-847 (Respiratory Syncytial Virus)
[6] = molecular target: F protein of RSV clinical isolate A3-7062 (Respiratory Syncytial Virus)
[7] = molecular target: F protein of RSV clinical isolate A4-6652 (Respiratory Syncytial Virus)
[8] = molecular target: F protein of RSV clinical isolate B1-6973 (Respiratory Syncytial Virus)
[9] = molecular target: F protein of RSV clinical isolate B2-6556 (Respiratory Syncytial Virus)
[10] = molecular target: F protein of RSV clinical isolate B3-447 (Respiratory Syncytial Virus)

F protein of RS Long strain virus (native form, on virus and infected VERO cells) (Respiratory Syncytial Virus), sequence (P12568 26-574): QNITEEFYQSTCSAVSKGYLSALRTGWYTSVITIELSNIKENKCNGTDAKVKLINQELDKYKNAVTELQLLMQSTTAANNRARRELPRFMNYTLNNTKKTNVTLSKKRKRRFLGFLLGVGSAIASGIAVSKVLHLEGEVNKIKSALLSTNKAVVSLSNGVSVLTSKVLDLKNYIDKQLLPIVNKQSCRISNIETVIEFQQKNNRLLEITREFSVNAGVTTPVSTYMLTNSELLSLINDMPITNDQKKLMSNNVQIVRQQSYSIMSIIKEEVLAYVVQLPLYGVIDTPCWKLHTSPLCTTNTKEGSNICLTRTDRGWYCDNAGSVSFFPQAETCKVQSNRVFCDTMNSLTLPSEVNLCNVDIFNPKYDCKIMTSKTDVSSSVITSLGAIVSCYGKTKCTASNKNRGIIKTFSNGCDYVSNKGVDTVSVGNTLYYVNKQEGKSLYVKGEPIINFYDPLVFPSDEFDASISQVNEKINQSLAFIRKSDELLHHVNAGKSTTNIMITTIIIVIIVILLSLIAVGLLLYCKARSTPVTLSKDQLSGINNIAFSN

Q: For SB 209763 (antibody), which Fusion-Inhibition Titer EC50 [1] is on record?
A: 2.5 mg/L

Q: And the Fusion-Inhibition Titer EC50 [2]?
A: 1.3 mg/L

Q: And the Fusion-Inhibition Titer EC50 [3]?
A: 1.95 mg/L

Q: What about the Fusion-Inhibition Titer EC50 [4] of the same substance?
A: 0.36 mg/L

Q: And the Fusion-Inhibition Titer EC50 [5]?
A: 0.27 mg/L

Q: What about the Fusion-Inhibition Titer EC50 [6] of the same substance?
A: 1.67 mg/L

Q: And the Fusion-Inhibition Titer EC50 [7]?
A: 1.52 mg/L

Q: And the Fusion-Inhibition Titer EC50 [8]?
A: 2.22 mg/L

Q: What about the Fusion-Inhibition Titer EC50 [9] of the same substance?
A: 2.05 mg/L

Q: And the Fusion-Inhibition Titer EC50 [10]?
A: 1.7 mg/L
